Where no end group is shown, it is not given here.

These results are taken from US20090214489A1 (published 2009).

Assay [1] addresses murine TPO receptor on Balb/C mouse marrow cells (mouse) (UniProt Q08351). Nature of the assay: cell-based or functional assay.
Assay [2] addresses T1, full length human TPO-R on transfected Ba/F3 cells (human, UniProt P40238 26-635).
T1 sequence (looked up): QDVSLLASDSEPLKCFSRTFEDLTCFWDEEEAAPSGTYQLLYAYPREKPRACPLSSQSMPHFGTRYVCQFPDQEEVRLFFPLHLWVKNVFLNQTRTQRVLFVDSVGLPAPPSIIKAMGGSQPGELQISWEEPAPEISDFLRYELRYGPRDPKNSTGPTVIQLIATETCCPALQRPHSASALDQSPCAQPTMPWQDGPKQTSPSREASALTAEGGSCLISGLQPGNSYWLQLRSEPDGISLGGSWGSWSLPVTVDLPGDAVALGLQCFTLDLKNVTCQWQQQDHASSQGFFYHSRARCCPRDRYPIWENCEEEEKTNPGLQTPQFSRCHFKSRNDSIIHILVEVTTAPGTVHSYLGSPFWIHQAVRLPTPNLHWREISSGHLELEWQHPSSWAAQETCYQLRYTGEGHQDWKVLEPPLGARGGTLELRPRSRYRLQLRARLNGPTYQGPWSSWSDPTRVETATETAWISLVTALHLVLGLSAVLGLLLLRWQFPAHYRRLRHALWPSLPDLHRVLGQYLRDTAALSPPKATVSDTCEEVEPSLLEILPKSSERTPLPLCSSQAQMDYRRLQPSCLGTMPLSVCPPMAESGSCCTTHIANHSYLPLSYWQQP
The experiment in a line: cell-based or functional assay.

In assay [1], “rhuTPO (from UniProt P40225 22-353) (ligand)” came in with a colonies of 3-5 large cells, mouse marrow in methylcellulose, 1 nM TPO, #1-1 of 15 colonies; a colonies of 3-5 large cells, mouse marrow in methylcellulose, 1 nM TPO, #1-2 of 12 colonies; a colonies of 3-5 large cells, mouse marrow in methylcellulose, 1 nM TPO, #2-1 of 16 colonies; a colonies of 3-5 large cells, mouse marrow in methylcellulose, 1 nM TPO, #2-2 of 13 colonies. In assay [1], this molecule registered a colonies of 6-12 large cells, mouse marrow in methylcellulose, 1 nM TPO, #1-1 of 6 colonies; a colonies of 6-12 large cells, mouse marrow in methylcellulose, 1 nM TPO, #1-2 of 1 colonies; a colonies of 6-12 large cells, mouse marrow in methylcellulose, 1 nM TPO, #2-1 of 8 colonies; a colonies of 6-12 large cells, mouse marrow in methylcellulose, 1 nM TPO, #2-2 of 3 colonies.

B1: Table 8 compound, drawing CHEM-US-00051 (peptide)
peptide: CTLGQWLQMGMC
modifications: not fully specified; cysteine pairing not given here
Turning to B1, in assay [2], the “activity (assay not given)” value is > 10 µm.

B2: Table 8 compound, drawing CHEM-US-00058 (peptide)
peptide: CTLKEWLVSHEVWC
modifications: not fully specified; cysteine pairing not given here
B2: the “activity (assay not given)” value in assay [2] is > 10 µm.

B3: Table 8 compound, drawing CHEM-US-00057 (peptide)
peptide: CTLAEFLASGVEQC
modifications: not fully specified; cysteine pairing not given here
With B3, in assay [2], the “activity (assay not given)” value is > 10 µm.

B4: Table 8 compound, drawing CHEM-US-00044 (peptide)
peptide: CTRAQFLKGC
modifications: not fully specified; cysteine pairing not given here
Turning to B4, the “activity (assay not given)” value in assay [2] is > 10 µm.

B5: Table 8 compound, drawing CHEM-US-00053 (peptide)
peptide: CTLREFLDPTTAVC
modifications: not fully specified; cysteine pairing not given here
Take B5: the “activity (assay not given)” value in assay [2] is > 10 µm.

B6: Table 8 compound, drawing CHEM-US-00045 (peptide)
peptide: CNINQLRSIC
modifications: not fully specified; cysteine pairing not given here
Consider B6, for which the “activity (assay not given)” value in assay [2] was > 10 µm.

B7: Table 8 compound, drawing CHEM-US-00046 (peptide)
peptide: CNRSQLLAAC
modifications: not fully specified; cysteine pairing not given here
B7: the “activity (assay not given)” value in assay [2] was > 10 µm.

B8: Table 8 compound, drawing CHEM-US-00052 (peptide)
peptide: CLTGPFVTQWLYEC
modifications: not fully specified; cysteine pairing not given here
As for B8, the “activity (assay not given)” value in assay [2] is > 10 µm.

B9: Table 8 compound, drawing CHEM-US-00054 (peptide)
peptide: CGTEGPTLSTWLDC
modifications: not fully specified; cysteine pairing not given here
With B9, the “activity (assay not given)” value in assay [2] was > 10 µm.

B10: Table 8 compound, drawing CHEM-US-00060 (peptide)
peptide: REGPTLRQWM
modifications: not fully specified
In the case of B10, the “activity (assay not given)” value in assay [2] is > 10 µm.

B11: Table 8 compound, drawing CHEM-US-00049 (peptide)
peptide: CLLSEFLAGQQC
modifications: not fully specified; cysteine pairing not given here
Regarding B11, the “activity (assay not given)” value in assay [2] is > 10 µm.

B12: Table 8 compound, drawing CHEM-US-00048 (peptide)
peptide: CQRADLINFC
modifications: not fully specified; cysteine pairing not given here
Regarding B12, the “activity (assay not given)” value in assay [2] is > 10 µm.

B13: Table 8 compound, drawing CHEM-US-00047 (peptide)
peptide: CTSTQWLLAC
modifications: not fully specified; cysteine pairing not given here
Consider B13, for which, in assay [2], the “activity (assay not given)” value is > 10 µm.

B14: Table 8 compound, drawing CHEM-US-00056 (peptide)
peptide: CSLKEFLHSGLMQC
modifications: not fully specified; cysteine pairing not given here
For the molecule B14, the “activity (assay not given)” value in assay [2] was > 10 µm.

B15: Table 8 compound, drawing CHEM-US-00055 (peptide)
peptide: CELVGPSLMSWLTC
modifications: not fully specified; cysteine pairing not given here
For the molecule B15, in assay [2], the “activity (assay not given)” value is > 10 µm.

B16: Table 8 compound, drawing CHEM-US-00061 (peptide)
peptide: REGPTLRQWLMSRS
modifications: not fully specified
Turning to B16, the “activity (assay not given)” value in assay [2] was > 10 µm.
